Measurements from article PMC4105751 (RNA, 2014).

Tests used:
crystal structure [1] = target: the molecule itself; assay: crystal structure
[2] = target: the molecule itself; assay: SAXS with inline size-exclusion chromatography
crystal structure [3] = target: the molecule itself; assay: crystal structure; remark: listed apart in the source

B1: N-terminal SPOUT domain of TrmJ of Escherichia coli (EcTrmJ1-164) (domain or fragment, E. coli, UniProt P0AE01 1-164, looked up)
chain: MLQNIRIVLVETSHTGNMGSVARAMKTMGLTNLWLVNPLVKPDSQAIALAAGASDVIGNAHIVDTLDEALAGCSLVVGTSARSRTLPWPMLDPRECGLKSVAEAANTPVALVFGRERVGLTNEELQKCHYHVAIAANPEYSSLNLAMAVQVIAYEVRMAWLATQ
stoichiometry N (crystal structure [1]): 2

B2: C-terminal domain of TrmJ of Escherichia coli (EcTrmJ167-246) (domain or fragment, E. coli, UniProt P0AE01 167-246, looked up)
chain: GEQVEHEETPYPLVDDLERFYGHLEQTLLATGFIRENHPGQVMNKLRRLFTRARPESQELNILRGILASIEQQNKGNKAE
stoichiometry N [2]: 2

B3: N-terminal SPOUT domain of TrmJ of Sulfolobus acidocaldarius (SaTrmJ1-157) (domain or fragment, UniProt Q4JB16 1-157, looked up)
chain: MTIRLVIVEPEGAYNLGFIARLVKNFLIDEFYVVNPKADINEAIKFSAKGSEVIEKMMKITNNFDDAIRDVDLKIATSSIADIKGDLLRKSIRPIDLERLIKDKKVAFIFGRESVGLTREEIAKSDFLLFIPANPEYPVLNLSHAVGIVLYELWRNR
stoichiometry N (crystal structure [3]): 2
